Data as given in article PMC3627579.
Read-outs that look alike come from different tables or passages of the source.

Experiments:
Experiment in all cases: ITC
[1] = target: T1, TRBP-D12 (Homo sapiens, UniProt Q15633 19-228)
T1 sequence: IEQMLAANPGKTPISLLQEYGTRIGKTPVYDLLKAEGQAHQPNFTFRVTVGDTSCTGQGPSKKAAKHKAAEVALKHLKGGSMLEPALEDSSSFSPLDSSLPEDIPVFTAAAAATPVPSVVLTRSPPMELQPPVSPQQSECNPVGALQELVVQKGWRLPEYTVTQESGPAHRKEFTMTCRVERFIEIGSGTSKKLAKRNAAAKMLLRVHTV

[2] = target: T2, TRBP-D2 (Homo sapiens, UniProt Q15633 157-228)
T2 sequence: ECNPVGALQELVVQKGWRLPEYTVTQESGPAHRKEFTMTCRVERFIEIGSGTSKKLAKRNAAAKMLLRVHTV

[3] = target: T1, TRBP-D12; remark: listed apart in the source
[4] = target: T3, TRBP-D1 (Homo sapiens, UniProt Q15633 19-99)
T3 sequence: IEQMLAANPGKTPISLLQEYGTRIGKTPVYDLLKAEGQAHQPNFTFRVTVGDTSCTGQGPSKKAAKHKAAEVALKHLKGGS

B1: miR-155/miR-155* (dsRNA)
RNA 1: GGAAUGCUAAUCGUGAUAGGCCU
RNA 2: GGCCUACAUAUUAGCAUUCCCA
With B1 the Kd [1] was 1000 ± 700 nM.

B2: pre-miR-155 (structured_RNA)
RNA: GGAAUGCUAAUCGUGAUAGGGGUUUUUGCCUCCAACUGACUCCUACAUAUUAGCAUUCCCA
In the case of B2, the Kd [2] is reported as 3700 ± 500 nM, the Kd [3] is reported as 500 nM and the Kd [4] is reported as 15400 ± 800 nM.
